T1: CD40 on murine splenic B cells (mouse, UniProt P27512 20-289)
T1 sequence (looked up): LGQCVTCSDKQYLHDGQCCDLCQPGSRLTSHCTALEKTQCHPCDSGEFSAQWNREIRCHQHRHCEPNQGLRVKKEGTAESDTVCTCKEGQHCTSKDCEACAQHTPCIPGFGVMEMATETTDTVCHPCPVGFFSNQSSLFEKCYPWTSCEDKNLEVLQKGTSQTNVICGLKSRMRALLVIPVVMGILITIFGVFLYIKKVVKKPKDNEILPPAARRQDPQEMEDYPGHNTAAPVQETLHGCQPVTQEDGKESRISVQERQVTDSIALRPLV

B1: murine CD40-human Fc fusion protein (Fc fusion, mouse, UniProt P27512 20-193, looked up)
chain: LGQCVTCSDKQYLHDGQCCDLCQPGSRLTSHCTALEKTQCHPCDSGEFSAQWNREIRCHQHRHCEPNQGLRVKKEGTAESDTVCTCKEGQHCTSKDCEACAQHTPCIPGFGVMEMATETTDTVCHPCPVGFFSNQSSLFEKCYPWTSCEDKNLEVLQKGTSQTNVICGLKSRMR
notes: captured on immobilised anti-human Fc mAb in the BIAcore assay; also called CD40-Fc; not shown: human immunoglobulin Fc
B2: soluble trimeric CD154 (tCD154) (ligand, human;mouse, UniProt P35247 223-257, looked up)
chain: DVASLRQQVEALQGQVQHLQAAFSQYKKVELFPNGLDKVEEEVNLHEDFVFIKKLKRCNKGEGSLSLLNCEEMRRQFEDLVKDITLNKEEKKENSFEMQRGDEDPQIAAHVVSEANSNAASVLQWAKKGYYTMKSNLVMLENGKQLTVKREGLYYVYTQVTFCSNREPSSQRPFIVGLWLKPSSGSERILLKAANTHSSSQLCEQQSVHLGGVFELQAGASVFVNVTEASQVIHRVGFSSFGLLKL
notes: range 223-257;range 50-260; Expressed in CHO-K1 with the rat CD4 leader (secretion signal, left out here); Non-covalent homotrimer, apparent mass ~100 kDa by size exclusion; also called trimeric form of CD154

What was measured:
[1] = target: B1; assay: BIAcore; dissociation half-time from captured CD40-Fc
Experimental: (§1) The lower activity of tCD154 when compared with SP-D-CD154 could be the result of its relatively low affinity for CD40. To address this question the inventors analysed the affinity and kinetics of the interaction between tCD154 or SP-D-CD154 and CD40 using the BIAcore™ biosensor, which measures protein-protein interaction in real time. A murine anti-human Fc mAb was covalently coupled to the dextran matrix, and either tCD154 or SPD-CD154 was then injected over this mAb in order to determine the level of non-specific binding. Specific binding was determined by first injecting murine CD40-human Fc fusion protein which bound to the immobilised anti-human Fc mAb, and then injecting (31.3-250 nM) tCD154 or SPD-CD154 (FIG. 6). Co-injection of the anti-CD154 mAb MR1 and tCD154 or SP-D-CD154 completely abolished the binding of tCD154 or SP-D-CD154 to CD40 (data not shown). […] SP-D-CD154 can potentially bind to twelve CD40 molecules, compared to three molecules with tCD154 [9], implying that the extent of receptor oligomerisation may influence the signals generated by CD40. Within the X-shaped SP-D molecule, the adjacent arms are separated by a distance of either ˜20 nm or ˜90 nm (FIG. 1A). Thus if all four arms of SP-D-CD154 engage cell surface-expressed CD40, two clusters are likely to form each with six closely associated CD40 molecules.

[2] = target: B1; assay: BIAcore; CD40-Fc captured on anti-human Fc mAb, SP-D-CD154 injected at 31.3-250 nM; apparent affinity
[3] = target: B1; assay: BIAcore; CD40-Fc captured on anti-human Fc mAb, SP-D-CD154 injected
[4] = target: T1, CD40 on murine splenic B cells; assay: cell-based or functional assay
[5] = target: B2; assay: BIAcore; CD40-Fc captured on anti-human Fc mAb, tCD154 injected
Experimental: as §1

[6] = target: B2; assay: BIAcore; CD40-Fc captured on anti-human Fc mAb, tCD154 injected at 31.3-250 nM; apparent affinity
Experimental: as §1

| t1/2 [1] | Kd [2] | koff [3] | fold increase in the level of CD86 on B cells against untreated cells (5 nM, 24 h) [4] | fold increase in the level of ICAM-1 on B cells against untreated cells (5 nM, 24 h) [4] | in vitro B cell proliferation assay [4] | mean forward scatter of B cells (size and activation status) [4] | proliferation of murine splenic B cells ([3H] thymidine incorporation) [4] | koff [5] | Kd [6] | Molecule |
| --- | --- | --- | --- | --- | --- | --- | --- | --- | --- | --- |
| 1.38 h | 1.3 nM | 0.00014 s⁻¹ | 3.6 fold | 3.8 fold | 2 µg/mL | 409 | 8 fold | – | – | SP-D-CD154 dodecameric fusion protein between lung surfactant protein-D and CD154 (from UniProt P35247 1-257; P27548 50-260) (ligand) |
| – | – | – | – | – | – | – | – | 0.00018 s⁻¹ | 2 nM | B1 |
| ~1.07 h | – | – | 1.4 fold | 2 fold | – | – | – | – | – | B2 |
